{"source": "paper PMC3942068", "about": "“Pharmacological characteristics and efficacy of a novel anti-angiogenic antibody FD006 in corneal neovascularization” (BMC Biotechnology, 2014)", "binders": {"B1": {"name": "FD006 (antibody, V domains shown)", "VH": "EVQLVQSGGGLVKPGGSLRLSCAASGFTLNASWIHWVRQAPGKGLEWVGAIYPYSGYSNYADSVKGRFTISADTSKNTLYLQMNSLRAEDTAVYYCARWGHSTSPYSAMDYWGQGTLVTVSS", "VL": "DIVMTQSPSSLSVSLGERVTITCRASQVLSRSLAWYQQKPGKAPKLLIYAASNVASGVPSRFSGSGSGTDFTLTISSLQPEDFATYYCQQSNTSPVTFGQGTKVEIK", "notes": "VH of FD006; heavy chain constant region of the full IgG; VL of FD006; light chain constant region of the full IgG; also called novel anti-VEGFA IgG; anti-VEGF monoclonal antibody FD006; source: recombinant vector transfected into mammalian cells, purified; prepared in our lab"}}, "key": {"[1]": {"biological_target": "T1, Vascular endothelial growth factor (VEGF) (Homo sapiens (assumed), UniProt P15692-4)", "T1 sequence (P15692 whole entry)": "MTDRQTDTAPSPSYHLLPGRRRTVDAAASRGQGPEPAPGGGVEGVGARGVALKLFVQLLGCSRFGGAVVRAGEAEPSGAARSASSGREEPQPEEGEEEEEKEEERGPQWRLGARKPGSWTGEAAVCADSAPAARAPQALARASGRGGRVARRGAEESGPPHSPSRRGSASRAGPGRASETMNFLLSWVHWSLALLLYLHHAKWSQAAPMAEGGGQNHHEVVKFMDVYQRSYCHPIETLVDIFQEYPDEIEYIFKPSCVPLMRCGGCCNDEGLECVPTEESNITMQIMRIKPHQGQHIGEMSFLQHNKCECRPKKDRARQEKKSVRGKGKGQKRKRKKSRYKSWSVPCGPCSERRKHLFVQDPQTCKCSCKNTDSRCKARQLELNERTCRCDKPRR", "assay": "cell-based or functional assay"}, "[2]": {"biological_target": "T1, Vascular endothelial growth factor …", "assay": "BLI; Octet RED; anti-human IgG biosensor pre-saturated with bevacizumab or FD006 (10 ug/ml); VEGF at 10, 3 and 1 ug/ml in solution; 30°C, PBS; association 5 min, dissociation 10 min; non-linear global fit", "conditions": "both partners purified"}}, "data": [{"binder": "B1", "values": [{"measurement": "IC50 of inhibition of VEGF-induced proliferation of HUVEC (antibody pre-incubated with 10 ng/ml VEGF, 72 h, CCK8)", "setting": "[1]", "result": "~0.031", "unit": "µg/mL"}, {"measurement": "Kd", "setting": "[2]", "result": 0.311, "unit": "nM"}, {"measurement": "koff", "setting": "[2]", "result": "4.59e-05", "unit": "s⁻¹"}, {"measurement": "kon", "setting": "[2]", "result": 148000, "unit": "M⁻¹ s⁻¹"}]}]}
